Measured values taken from the supplement of paper PMC7877785.
± gives the uncertainty stated by the source.

Assay: self-splicing fitness, log relative to wild type (ln ratio); higher = more splicing; Tetrahymena group I intron in knt gene, E. coli kanamycin selection, DiMSum; sequences stand for … in CUCUCU…GGAGGGAAAAGUUAUCAGGCAUGCACCUGGUAGCUAGUCUUUAAACCAAUAGAUUGCAUCGGUUUAAAAGGCAAGACCGUCAAAUUGCGGGAAAGGGGUCAACAGCCGUUCAGUACCAAGUCUCAGGGGAAACUUUGAGAUGGCCUUGCAAAGGGUAUGGUAAUAAGCUGACGGACAUGGUCCUAACCACGCAGCCAAGUCCUAAGUCAACAGAUCUUCUGUUGAUAUGGAUGCAGUUCACAGACUAAAUGUCGGUCGGGGAAGAUGUAUUCUUCUCAUAAGAUAUAGUCGGACCUCUCCUUAAUGGGAGCUAGCGGAUGAAGUGAUGCAACACUGGAGCCGCUGGGAACUAAUUUGUAUGCGAAAGUAUAUUGAUUAGUUUUGGAGUACUCGUGGUCG
Summary of the method: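 Six replicate transformations of E. coli BL21(DE3) with a pET-22b(+) library were grown overnight at 37°C or 30°C. The library randomised all eight P1ex-region intron nucleotides, the intron lying in the knt kanamycin-resistance gene, and plates were LB agar with or without 25 μg/mL kanamycin plus 100 μg/mL carbenicillin, 50 μM IPTG and 0.2% rhamnose. Pooled colonies were amplicon-sequenced on an Illumina HiSeq 2500, and fitness is the DiMSum error-weighted combination of wild-type-normalised replicate fold changes, kanamycin versus none.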

Sequence	self-splicing fitness (ln) (30 °C)	self-splicing fitness (ln) (37 °C)
UACUAGCAAUAUUACGUAUU	-4.56 ± 0.29	-2.24 ± 0.15
ACACAGCAAUAUUACGACGG	-0.479 ± 0.073	-0.0997 ± 0.11
GAAAAGCAAUAUUACGAAGC	-3.19 ± 0.22	-2.65 ± 0.28
UGGAAGCAAUAUUACGGACA	-1.03 ± 0.13	-0.0422 ± 0.11
UAGAAGCAAUAUUACGUUAU	-3.81 ± 0.14	-2.76 ± 0.12
AUCGAGCAAUAUUACGUGGU	-3.23 ± 0.15	-2.72 ± 0.14
UAGCAGCAAUAUUACGACAU	-1.604 ± 0.013	-0.682 ± 0.033
AACCAGCAAUAUUACGCCGU	-1.03 ± 0.079	0.182 ± 0.1
CAAUAGCAAUAUUACGCCUG	-0.752 ± 0.075	0.366 ± 0.088
GGAGAGCAAUAUUACGCUCG	-2.7 ± 0.24	-2.45 ± 0.19
GACCAGCAAUAUUACGCCCC	-1.35 ± 0.17	-0.908 ± 0.17
UGAGAGCAAUAUUACGCCGC	-3.41 ± 0.23	-2.5 ± 0.31
GAGGAGCAAUAUUACGGUGU	-3.56 ± 0.27	-1.59 ± 0.21
CGGGAGCAAUAUUACGGGAU	-3.37 ± 0.34	
CUGCAGCAAUAUUACGCGGA	-2.29 ± 0.21	-2.21 ± 0.31
GUAGAGCAAUAUUACGGUUC	-1.84 ± 0.11	-0.825 ± 0.14
AUUUAGCAAUAUUACGCAUC	-3.58 ± 0.19	-3.27 ± 0.32
CCUGAGCAAUAUUACGACGA	-2.99 ± 0.24	-1.61 ± 0.17
GCCGAGCAAUAUUACGAGAC	-2.93 ± 0.11	-1.54 ± 0.1
CAGUAGCAAUAUUACGCAUA	-2.04 ± 0.2	-1.59 ± 0.21
ACGGAGCAAUAUUACGGGAG	-3.09 ± 0.37	-1.65 ± 0.24
AUGGAGCAAUAUUACGAUAC		-1.71 ± 0.48
GAUCAGCAAUAUUACGCAGG	-3.3 ± 0.29	-1.09 ± 0.12
AAGGAGCAAUAUUACGAGAC	-2.03 ± 0.44	
GGCCAGCAAUAUUACGAGGA		-1.26 ± 0.15
GUACAGCAAUAUUACGUUUG	-3.06 ± 0.13	-2.59 ± 0.17

Sequence	self-splicing fitness (ln) (30 °C)	self-splicing fitness (ln) (37 °C)
UAGGAGCAAUAUUACGAGGU		-2.42 ± 0.32
AGGGAGCAAUAUUACGUGCU	-3.8 ± 0.3	-1.92 ± 0.25
CAGCAGCAAUAUUACGUAGG	-0.47 ± 0.063	-0.331 ± 0.094
GUCUAGCAAUAUUACGGAUA	-1.26 ± 0.099	-0.0363 ± 0.11
CUUGAGCAAUAUUACGCGGU	-2.53 ± 0.33	-2.78 ± 0.48
UUUGAGCAAUAUUACGGGCG	-3.15 ± 0.42	-2.16 ± 0.43
CCUAAGCAAUAUUACGUCAA	-2.65 ± 0.16	-3.14 ± 0.21
UGACAGCAAUAUUACGGUCG	-3.56 ± 0.26	-1.58 ± 0.21
GCAUAGCAAUAUUACGACGG		-1.01 ± 0.41
CGCUAGCAAUAUUACGUUGC	-3.3 ± 0.33	-2.98 ± 0.29
CAAAAGCAAUAUUACGUUAG	-1.57 ± 0.064	-0.632 ± 0.084
UGUUAGCAAUAUUACGCACG	-0.922 ± 0.11	-0.377 ± 0.12
UGGAAGCAAUAUUACGCGGA	-1.17 ± 0.2	-1.88 ± 0.23
UUGGAGCAAUAUUACGCUGA	-1.98 ± 0.17	-1.5 ± 0.16
GUGUAGCAAUAUUACGCACA		-1.5 ± 0.2
AUUCAGCAAUAUUACGGGAU	-4.6 ± 0.27	-2.32 ± 0.2
GUGUAGCAAUAUUACGGAUU	-2.13 ± 0.087	-1.16 ± 0.11
CUCGAGCAAUAUUACGGCUG	-3.82 ± 0.42	-1.94 ± 0.29
CCGUAGCAAUAUUACGGCAC	-3.83 ± 0.42	-2.14 ± 0.26
ACCUAGCAAUAUUACGUAGC	-1.81 ± 0.12	-0.966 ± 0.14
CAGUAGCAAUAUUACGAUGU	-2.34 ± 0.16	-1.65 ± 0.18
CAGCAGCAAUAUUACGAGCC		-1.48 ± 0.23
GGGUAGCAAUAUUACGGAUC	0.0263 ± 0.12	0.637 ± 0.17
CAAUAGCAAUAUUACGCGGG	-3.11 ± 0.16	-1.75 ± 0.12
AGCCAGCAAUAUUACGGUAA	-1.23 ± 0.069	-0.323 ± 0.074
AUGUAGCAAUAUUACGGCUU	0.168 ± 0.095	0.71 ± 0.12

Sequence	self-splicing fitness (ln) (30 °C)	self-splicing fitness (ln) (37 °C)
AUCUAGCAAUAUUACGUGAA	-2.52 ± 0.12	-0.861 ± 0.12
AAGCAGCAAUAUUACGGAGU	-3.69 ± 0.13	-1.15 ± 0.1
AUUUAGCAAUAUUACGGGAA	-2.24 ± 0.26	-1.84 ± 0.19
UAAAAGCAAUAUUACGACGU	-0.791 ± 0.13	-0.527 ± 0.12
ACUAAGCAAUAUUACGAUAC	-2.39 ± 0.21	-1.29 ± 0.22
GUAAAGCAAUAUUACGUCGU	-0.978 ± 0.091	-0.114 ± 0.14
ACAUAGCAAUAUUACGGAUG	-1.77 ± 0.12	-1.6 ± 0.14
CUGAAGCAAUAUUACGUAAG	-0.797 ± 0.08	0.0174 ± 0.086
GUCGAGCAAUAUUACGCCUC	-1.51 ± 0.23	-0.868 ± 0.33
AAUGAGCAAUAUUACGAGUU	-3.21 ± 0.28	-1.8 ± 0.31
ACUGAGCAAUAUUACGGUCU	-2.46 ± 0.12	-1.57 ± 0.16
GUUAAGCAAUAUUACGUUCA	-0.268 ± 0.09	-0.472 ± 0.11
CCCGAGCAAUAUUACGACCG	-4 ± 0.29	-2.24 ± 0.29
AUAAAGCAAUAUUACGAAUA	-0.578 ± 0.14	-0.302 ± 0.26
CGGGAGCAAUAUUACGGUCC		-2.32 ± 0.24
AACUAGCAAUAUUACGCCGG	-1.63 ± 0.14	-1.19 ± 0.17
GCUAAGCAAUAUUACGAGCG	-1.7 ± 0.11	-0.246 ± 0.12
AUAUAGCAAUAUUACGGUAU	-3.75 ± 0.32	-1.45 ± 0.2
GGGCAGCAAUAUUACGUAAG	-0.581 ± 0.063	0.126 ± 0.096
GCAUAGCAAUAUUACGCAGC		-1.68 ± 0.44
UGCUAGCAAUAUUACGGUAG	-1.49 ± 0.098	-0.852 ± 0.13
CCAAAGCAAUAUUACGGACG	-0.4 ± 0.064	0.287 ± 0.091
CCUCAGCAAUAUUACGCGCA	-3.31 ± 0.27	-2.74 ± 0.23
AGAGAGCAAUAUUACGAUGC	-3.3 ± 0.48	
CGCGAGCAAUAUUACGUUCU	-3.71 ± 0.28	-2.76 ± 0.38
GAAAAGCAAUAUUACGACAC	-0.467 ± 0.14	-0.346 ± 0.17
